Test system: H1650 cells
Test: PD-L1 immunocytochemistry (ICC), IFNγ modulation
Assay type: cell-based
Conditions: H1650 (NSCLC); 10 ng/mL human IFNγ, 24h; anti-PD-L1 clone E1L3N
Method: The human NSCLC cell line SKMES1 was grown in Eagle's Minimum Essential Medium (EMEM; ATCC #30-2003) with 10% Fetal Bovine Serum (FBS) and 1% Penicillin and Streptomycin (P/S). The human NSCLC H460, H1299 and H292 and melanoma cell lines MeWo, HMVII, A375 and CHL1 were grown in RPMI1640 medium with 10% FBS and 1% P/S and 1% sodium pyruvate. Cultured cells were harvested using Accutase, and the cell count and viability were determined using trypan blue dye exclusion. Other methods to collect cells, including scraping or other release can be used.
Between 15,000 to 20,000 cells were put into each chamber of 8-chambered ICC slides in 200 uL medium with or without 10 ng/mL human IFNγ. […] IFNγ can be readily replaced by other modulators discussed within. […] Cell lines can be readily switched for other sources of cells, including those isolated from xenografts or clinical samples and can be processed manually or using automated methods (e.g. on SnapPath).
Cells on the chambered slides were stained entirely at RT using the BioGenex RTU Detection System kit components (QD400) unless otherwise indicated. Other detection reagents and methods (e.g. multiplex immunocytochemistry, single of multiplex immunofluorescence, confocal, etc.), including automated staining methods, can be used readily. […] Ki67, T-EGFR or vimentin are provided as examples of positive controls, but others can be readily used. […]

B1: IFNγ: human IFNγ, modulator (10 ng/ml; Sigma Aldrich) (protein, UniProt P01579 24-161, looked up)
Interferon gamma: QDPYVKEAENLKKYFNAGHSDVADNGTLFLGILKNWKEESDRKIMQSQIVSFYFKLFKNFKDDQSIQKSVETIKEDMNVKFFNSNKKKRDDFEKLTNYSVTDLNVQRKAIHELIQVMAELSPAAKTGKRKRSQMLFRG
  Immunocytochemical Score, PD-L1, IFNγ-Treated Cells: Negative
